Consider one protein from patent US20110287458A1 (TEXAS A AND M UNIVERSITY SYSTEM, published 2011).

This data set deals with the molecule itself. Put plainly: native PAGE, self-association. The procedure: Native polyacrylamide gel electrophoresis (PAGE) was performed by use of the MINI PROTEAN® 3 electrophoresis cell and a discontinuous buffer system (Ornstein-Davis) according to the standard procedures given by the manufacturer (Bio-Rad Laboratories). Using native PAGE, pure canine S100A12 was evaluated in the presence of 0.3 mM Ca²⁺, 3 mM Ca²⁺, 10 mM Ca²⁺, and 10 mM EGTA.

B1: canine S100A12 (other)
chain: TKLEDHLEGIVDVFHRYSARVGHPDTLSKGEMKQLIIRELPNTLKNTKDQATVDKLFQDLDADKDGQVNFNEFISLVSVVLDTSHKNTHK
notes: Purified from canine leukocytes; Runs as a non-covalent homodimer on native PAGE; In the RIA the tracer is 125I-labelled; In serum and fecal extracts it is the native protein; also called calgranulin C; EN-RAGE
For B1, the binding result is listed as “binds”.
